Experimental data as given in patent publication US20170002075A1 (AbbVie / Abbott, published 2017).

What was measured:
[1] = biological target: T1, biotinylated Aβ1-42 globulomer (UniProt P05067 672-713, 1/5 of the Aβ1-42 peptide used was Biotinyl-Amyloid β-Protein (1-42)); assay: ALPHA screen: RAGE-Fc titrated on protein A acceptor beads, biotinylated Aβ globulomer on streptavidin donor beads
T1 construct: domain: Amyloid β-Protein (1-42); Oligomer of Aβ1-42; Concentrations are calculated as Aβ1-42 monomer; also called Aβ-globulomer; amyloid Aβ-globulomers

[2] = biological target: T2, recombinant human RAGE (plate coat of the competition ELISA of Example 1.4); assay: competition ELISA on plates coated with recombinant human RAGE (2 µg/mL); competitor: biotinylated hybridoma-derived 4E5 (4E5-biotin), streptavidin-HRP, OD 450 nm; the unit comes from the axis 'Log MAbs (M)'
T2 construct: not shown: The carrier of the coated preparation, if it had one
Protocol: The purified chimeric anti-human RAGE monoclonal antibodies were tested for their ability to bind human RAGE in a competition ELISA. […] Equal volumes (50 μL) of each recombinant chimeric anti-human RAGE monoclonal antibodies or hybridoma-derived anti-human RAGE monoclonal antibodies and each corresponding biotinylated hybridoma-derived anti-RAGE mAbs were mixed. 50 μL of this mixture was then added to ELISA plates pre-coated with recombinant human RAGE at 2 μg/mL and incubated for 1.5 hours at room temperature. Wells were washed three times with PBS+0.05% Tween-20. Streptavidin HRP (1 mg/mL) was diluted 1:16000 in PBST+10% Superblock; 50 µL/well was added and the plates incubated for 1 hour at room temperature. Plates were washed 3 times with PBS+0.05% Tween-20. 50 µL of TMB solution (Sigma, St Louis, Mo.) was added to each well and incubated for 10 minutes at room temperature. The reaction was stopped by addition of IN sulphuric acid. Plates were read spectrophotometrically at a wavelength of 450 nm.

binding result [1]	EC50 [2]	Binder
no binding (tested: about 30 ng/µl)		C-terminal shortened husRAGE fusion protein (1-130-sRAGE-Fc) (Fc fusion, also called husRAGE-1-130-Fc; RAGE-Fc mutant protein consisting of the v-domain only; not shown: C-terminal part of a human IgG heavy chain ('hIgG lambda hc 257-Stop')) AQNITARIGEPLVLKCKGAPKKPPQRLEWKLNTGRTEAWKVLSPQGGGPWDSVARVLPNGSLFLPAVGIQDEGIFRCQAMNRNGKETKSNYRVRVYQIPGKPEIVDSA
	0.0663 µM	4E5-recombinant (antibody, V domains shown, also called recombinant chimeric anti-human RAGE monoclonal antibody 4E5 (human IgG1/kappa)) VH: QVQLQQSGAELVRPGTSVKVSCKASGYAFNNYLIEWIKQRPGQGLEWIGVINPGSGGTNHNEKFKVKATLTADKSSSTAYIQLSSLTSDDSAVYFCARSAGTARARFAYWGQGTLVTVSA VL: DIQMTQSPSSLSASLGERVSLTCRASQDIGSSLNWLQQEPDGTIKRLIYATSSLDSGVPKRFSGSRSGSDYSLTISSLESEDFVDYYCLQYASFPFTFGSGTKLEIKR
